Source: article PMC7386476

Assays:
[1] = target: nsp12 (RNA-dependent RNA polymerase);nsp7;nsp8;nsp13 helicase (SARS-CoV-2;SARS-CoV-2;SARS-CoV-2;SARS-Co …, UniProt P0DTD1;P0DTD1;P0DTD1;P0DTD1 4393-5324;3860-3942;3943-4140;5325-5925, |||); assay: EMSA
[2] = target: nsp12 (RNA-dependent RNA polymerase);nsp7;nsp8 (SARS-CoV-2;SARS-CoV-2;SARS-CoV-2, UniProt P0DTD1;P0DTD1;P0DTD1 4393-5324;3860-3942;3943-4140, ||); assay: EMSA

B1: RNA scaffold (template-product, cryo-EM primer and template, Figure 1A) (dsRNA)
RNA 1: CUAUCCCCAUGUGAUUUUAAUAGCUUCUUAGGAGAAUGACGUAGCAUGCUACGCG
RNA 2: CGCGUAGCAUGCUACGUCAUUCUCCUAAGAAGCUA
B1: binds [1]; binds [2].
